Test results: the DeepSol protein solubility set

Test: soluble on expression in E. coli; label from the status in PepcDB or PDB records

| Sequence | soluble on expression in E. coli |
| --- | --- |
| MPKRKLKTPESTETTKICKKNDNFSDFWSEKLDEIGSAHLADTKSRTKSAVKHELTGIGSSSIYKGTRDLQLPKSEDLSNFGWNEGVLEHLQVLLEEIEVDEKKEEQIEAERGAILKFTAEYRDLLAITGDQGGYRSIYCAHIIQHLIRNKNLIIGNKRKLEIASTQEGGADEETIESCRDSGFVRPVVLVLCAFKKDAYDIINRLRRILHGDDEGKSEVWNKNRFEEEYSGPTELPTTRADFPDDHKELLLGNNDDAFRIGLAISKKVLKLYEKFEKADILVCSPLGLRMILNGDDGNEAHLISSINMTIVDRTDIMLQQNWENLQLIFSHLHSQPSKIDVDISRVRKLYLDGQSRHFSQLLMFSRYSHELFTSLMLQNSQNHRGLVIAKPKQSGTLSNIEIPLCQELHKFEVKDPNETSDLRFKYFVDKIMPSLIPRTLIVIPSYFDFVRVRNHLKKAEESFVMCHEYATRAKVDRAREMFFHERKSYLVVTERWYFFNRRHLTGVHRVVFYQLPSHPLFYSEFINMSDAETSQRFLAVLLLCKYDRIRLENTFGTEMAAAVMSNKQAVQAIVSQ | not soluble |
| MGSDKIHHHHHHCQTQVETAPTSDVIKLQQTALASQLGYDIVESLTVEVGPRLAGSPKDIIAVNWAINKLTSLGFDRVYKEPVQVPIWERGEAKAKITFPVEQPLVITALGGSIATPAGGIQAKIARFDSLEALQQAKPEDVQGKIAFIDQKTERHITGEGYGKSVGGRSKGAVVAAQKGAVAIVIRSIGTDHDRMAHTGVMRYQDDVPKIPAAAMSNPDADLVDALLKRNPDALLELQMSPKNAGFNTSYNVIAEVTGSSKPNEIVLIGAHLDSWDEGTGAIDDGAGVAIVTAAAKHIQDLLVKPARTVRVVLYAAEEIGLVGGKAYAETHKAELPLHYIAAESDFGAGRIYQIDTKVNESAFAEVQHALSPMSFNGVALGNNQASGGPDVSMLPALGVPVASLRQDGHDYFDYHHTPNDTLDKIDPAALAQNVAAYAQFAYIMANSTPTLTPLVIQSEK | not soluble |
| MSLGDKPLQTVLHDEHYGGLDFSLGDSKYSGELEYNKSYMVNFSVNLPAEGSVKVAKAYVYWVWSKKDLEGIYPQFNASIINSETTAPLPKGHMYTDTKGFVSRYDYFSGMNTYDLSGKISKSGNYSISLVNTDKNGSTFCVQGIGLLLVYEDPKSPAIEYWINEGCDMLYADYGITPEVATTTTYFKGDIDPDNVTDARLITVSPSGGYSSGREARNKLFFNEETRSIPVLGDIVQLLFGSGKVWENVYQTNETVQIALDEKPVADYLEPTENFASIQDNGDYLLATNAILVLKFKGPESSETKGSEGHHHHHH | soluble |
| MKALRSSSRLSRWREWAAPLWVGCNFSAWMRLLIRNRFAVHHSRWHFAVLYTFLSMVNSCLGLWQKIVFGRRVAETVIADPPIFIVGHWRTGTTLLHELLVVDDRHTGPTGYECLAPHHFLLTEWFAPYVEFLVSKHRAMDNMDLSLHHPQEDEFVWCMQGLPSPYLTIAFPNRPPQYEEYLDLEQVAPRELEIWKRTLFRFVQQVYFRRRKTVILKNPTHSFRIKVLLEVFPQAKFIHIVRDPYVVYPSTIHLHKALYRIHGLQQPTFDGLDDKVVSTYVDLYRKLDEGRELVDPTRFYELRYEDLIGDPEGQLRRLYQHLGLGDFECYLPRLRQYLADHADYKTNSYQLTVEQRAIVDEHWGEIIDRYGYDRHTPEPARLRPAVGG | not soluble |
| MDVEKIALKHALINAIEHGGKANLKAVIGKVLGENPELRPRAKEIIPIINKVVEEVNSLARDEQLEKLKDIYPEYFEKKEEKKEKKGLPLLPKAEKGKVVTRFAPNPDGAFHLGNARAAILSYEYAKMYGGKFILRFDDTDPKVKRPEPIFYKMIIEDLEWLGIKPDEIVYASDRLEIYYKYAEELIKMGKAYVCTCPPEKFRELRDKGIPCPHRDEPVEVQLERWKKMLNGEYKEGEAVVRIKTDLNHPNPAVRDWPALRIIDNPNHPRTGNKYRVWPLYNFASAIDDHELGVTHIFRGQEHAENETRQRYIYEYFGWEYPVTIHHGRLSIEGVVLSKSKTRKGIEEGKYLGWDDPRLGTIRALRRRGILPEAIKELIIEVGLKKSDATISWENLAAINRKLVDPIANRYFFVADPIPMEVEGAPEFIAEIPLHPDHPERGVRRLKFTPERPVYVSKDDLNLLKPGNFVRLKDLFNVEILEVGDKIRARFYSFEYEIAKKNRWKMVHWVTEGRPCEVIIPEGDELVVRKGLLEKDAKVQVNEIVQFERFGFVRIDRIEGDKVIAIYAHK | soluble |
| MSLKKLITANDIREAHARGEQAMSVVLRASIITPEAREVADLLGFTITECDESIPVTASVPASVPADKTESQRIRETIIAQLPEGQFTESLVAQLMEKVMKEKQSLEQGAMQPSFKSVTGKGGIKVIDGSSVKFGRFDGAEPHCVGLTDLVTGDDGSSMAAGFMQWENAFFPWTLNYDEIDMVLEGELHVRHEGQTMIAKAGDVMFIPKGSSIEFGTTSSVKFLYVAWPANWQSLEGGSHHHHHH | soluble |
| MEEGSAIDYQRVPPLSGTHYASTVSAGFYEATPLLGSLVHTLEHGAVIVYYDPDEISPEARQSLREFSSVHTGTWRSVVAVPNPNDDPRATYVVTAWQHELTIDSYDAETVHAFLSEYLGRGPENPVRLEHHHHHH | soluble |
| MGSDKIHHHHHHMTSQLNELVEFLHSPQPAVRQIAIDNLVGFSAGPTSKVFKNDSYRPIKDIIKMIMDPEHGTRVIIQQGVTILVNLSEDKLVRNIILSDDKKFLKFLVWKIVDLTNPNADIMCILLSNLAKDDGILAVLNIKRNSSGEEVDDGLKLAALNKEVFKSLRAMDCLMDCFVKGYDKKLTKYASFNYLAFFFADISRFKLGRMYFIEEQEYDGVVPISKLLVFTEKYDAKVRREGVASTIKNSLFDSETHERLLKDEKINLLPYILLPIASAKDSEIDEEDMFNLPDELQLLPEDKERDPIPAIICCHLESILLLCTTHAGREYLRDKSVYPLVRELHKNVENEDIGELCYRIVNMLMRGEPGAGAVEEMPSKNAEEEEEEESEEEEDDDEEDEIVEVA | not soluble |
| MKESYYSIGEVSKLANVSIKALRYYDKIDLFKPAYVDPDTSYRYYTDSQLIHLDLIKSLKYIGTPLEEMKKAQDLEMEELFAFYTEQERQIREKLDFLSALEQTISLVKKRMKRQMEYPALGEVFVLDEEEIRIIQTEAEGIGPENVLNASYSKLKKFIESADGFTNNSYGATFSFQPYTSIDEMTYRHIFTPVLTNKQISSITPDMEITTIPKGRYACIAYNFSPEHYFLNLQKLIKYIADRQLTVVSDVYALIIPIHYSPKKQEEYRVEMKIRILDHHHHHH | soluble |
| MAIIRQRYQEQLDDLIKELRRLGANVYVSIENGIKSLSIDDRGFARQTVKNDKHINQLNYDINERVIMLITKQQPIASDLRMMISSLKIASDLERIGDNASSIANIRLRTKITDDYVLTRLKTMGKLAMLMLKDLDQAFKKKDTVLIREIIERDEDIDDLYSHIINATYLIDNDPFVAAQAHLAARHLERIGDHIINIAESVYFYLTGTHYEQ | not soluble |
| MSQEIQPQATQLQPFSQACENNKVPILAVLKSAFANTTRVLEIGSGTGQHAVYFATNLPQLFWQTSDQAEYLEGIKARCLLQGHQLGINNLGFPITLDVTAPWPVNGTHIDAVFSANTLHIMSKSMVEAFFNGLGEYLPQLNTLCIYGPFNYQGHYTSDSNRQFDHFLKQRDSESGIRDIEWIIALAQAQGLTLVEDIAMPTNNRLLHFKHLLALEHHHHHH | soluble |
| MAHHHHHHMEPFTWLPAERYFHPLLNSIGAYQRYTYSLRAVCDAQRQKLLPGGDIEQNPGPIAVLQMNVSCLTPSKLATLMAQGADIIAIQETWKSSEQIASMHTGDHVLHAQSRIGKGSGVAVLVRKTLRSKRVPLTIPQHDTSLEVVVVQVALDQNRDLIVASTYMRPPPQVTQSFRRLVNCLPASSPLLLCGDFNMHHPQWEPFLESSPSEVAAEFLELCTDAGLTLVNTPGDITYARGTRERSCIDLTWSKHLTVSDCSASVSPLSDHYMLTFTLHQAFMDTIPSAPPSAPRTFYS | not soluble |
| MAHQLLIGKGMITLNLKRIFLALTLLPLFAVAADDCALSDPTLTVQAYTVNPQTERVKMYWQKANGEAWGTLHALLADINSQGQVQMAMNGGIYDESYAPLGLYIENGQQKVALNLASGEGNFFIRPGGVFYVAGDKVGIVRLDAFKTSKEIQFAVQSGPMLMENGVINPRIHPNVASSKIRNGVGINKHGNAVFLLSQQATNFYDFACYAKAKLNVEQLLYLDGTISHMYMKGGAIPWQRYPFVTMISVERKGLEHHHHHH | not soluble |
| MKTTPVTPDDLQRSVIAVPPLARHADLTLNPAANQAVLRHLEAGGVRSVMYGGNANFYHVQVSEYAQLLDFLAESAGPDTWVLPSAGPDYGKLMDQAAILRTRDFPTAMLLPMSFPYTDAGLADGIRRFSDAMDRPAVVYIKSSDYLAPATVARLIGEGRIAALKYAVVREDPARDPYLDALLKEVDPRWIVSGIGERPAIVHFRQFGLRSFTSGSVCVAPRGSMRLLHLLHQGDFEAAEQVRAAYIPLEDCRDGISPIRVLHDAVTLAGVADMGPMLPLLSGLDPADRERVAPVARALLAGDRQ | not soluble |
| MSREQAILVGCQLAGVDDERFRYSMEELVSLVATANGEVVAEVTQKREAPHPATYIGKGKTEELAAIVKQLEPDVVIFNSELSPSQARNLTKMLGEVKVIDRT | not soluble |
| MKIKSIEPTPSPNTMKVILTEELPAGKSNNYKPEQAEGAPLVIAEILKIDGVKGVYHVADFLAVERNARYDWKDILPQVRTAFGMESAESAEENRSDQESFGEVKVFVQMFSGIPMQVKLTDGEREERFGLPERFQQAILKLRSEASNVVFERAWKEQGVRFGDFDEIGHDVTEELQAAYSDERLKRLTEAAAQGKGEAKQAVQRKAYKVTLDMLDDEDWKKRYAHLEQMDPKEEDIPVLQKALDDPKVSIRRQAVVYLGMIETPDVLPLLYKALEDKAVSVRRTAGDCLSDIGDPQAIPAMIKSLSDSSKLVRWRAAMFLYEVGDESAIEALRAAEDDPEFEVSLQVKMALERIEHGEEAKGSVWKQMTESRKKGE | soluble |
| MAHHHHHHMARRPSRCYRFCKNKPYPKSRFCRGVPDPKIRNFDIGRRRATVDEFPVCIHVVSRELEQIASEALEAARIQANKYMVKRANKDVFHMRTRAHPFHVLRINKMLSCAGADRLQTGMRGAFGKPNGVCARVRIGQILLSMRTKEAYVPQAFEALRRAKMKFPGRQIIVMSKYWGFTNILRTEYEALRDAGKLEQRGTHCKLIAPKGKITMRNVMA | not soluble |
| MSLTVLILRCIMVKSTTRKSAKSDRRRYNRIARFYDLFETPMELMNFRKWRKMLFDLIKAEKGLVLEIGAGTGKNIPHYPSNVVALDISEKMLERAVRRAKESGKKVDFLLADAENLPFRSNSFDVVFTTFVFCSVDDPVRGLREAFRVLKKGGRAYFLEHMLPKSRFLHPLFNLLNPIFRAFGPEINRRTDENIQRAGFQIVKEYMLFGSVFRLIVAEKPLDSVDEASGYSLKRSESSDSSNFRRFIGQSLLPLRLTQLLREGHHHHHH | not soluble |
| MGSDKIHHHHHHMATMMMNDMAARGLRVGLLTWDPEDATAHYPMDPAITWMKLAMGEASQRAGWGLRLRRQRAIRRLARGFRPDVVIGFQAGAFIALRTALVGLGIPMIAAERNAPDLYDFLRQGVRARRMTELALATASRITVQLPSYRPRYPAFLRRRIVDIPNPVPALAEPPYPNEAADPPRLILNMGRLSYQKNQAFLLRAFARVAPTHPEWTLAFVGDGDAGATLKALCHELDLDDRVLFPGATRDVGAWYARSAFLAFPSLWEGFPNALVEAFAHGLPAVGLRTTSGVNELIVEGETGLLSAPDEGAFAEALARMIRDDEARREMGRKAARSILAYDPKAIFDRWEALFRAVAKRRSAP | not soluble |
